Type in all cases: cell-based, human
The subject of assay [1] is granzyme and IFNγ secretion. Briefly: Secretion of granzymes and IFNγ from PBMC culture, ELISA. The method, then: Activation of T and NK cells in the PBMC culture could be studied by granzyme and IFNγ secretion [Carlin et al., Blood., 2005; 106 (12): 3874-9; Grossman et al., Blood., 2004; 104 (9): 2840-8; Keppel et al., J Immunol., 2015; 194 (4): 1954-1962; Tamang et al., Cytokine., 2006; 36 (3-4): 148-59]. Similar results are obtained in-house that IL-2 and IL-15 but not IL-21 could trigger secretion of granzyme A and IFNγ in PBMC culture (FIG. 15A-B).
Antibodies or ritlecitinib were added into the PBMC culture to investigate their inhibitory effects in the presence of IL-2 or IL-15 treatment.
Releases of cytolytic agents from PBMC culture were further evaluated by ELISA assays.
Background: In an ELISA, binding on a coated surface is turned into a signal by an enzyme label.

The test system of assay [2] is granzyme A secretion. The assay can be described thus: Granzyme A secretion from KHYG-1, ELISA. The note with it: 3 days, 33 nM. The protocol: To test the efficacies of anti-γc antibodies, proliferation and granzyme A secretion were chosen as the experimental models. In brief, KHYG-1 was seeded into either 48- or 96-well plates and starved in non-IL-2 supplemented medium overnight. After replenishment with new medium, KHYG-1 was pre-incubated with anti-γc antibodies or ritlecitinib for an hour before the administration of γc cytokines for 3 days. Proliferation rate was determined by the addition of WST-8 reagent while the secretion of granzyme A was estimated by ELISA measurement.

The test system of assay [3] is CD23 expression. Briefly: qRT-PCR of CD23 expression in Ramos. The note with it: IL-4 10 ng/ml, 24 hours, 33 nM. The method, then:
Genes related to the B cell functions were investigated by quantitative real-time PCR (qRT-PCR). In brief, Ramos cells were starved in serum-free RPMI1640 medium for 24 hours and then treated with 10 ng/ml IL-4 or IL-21 for 24 hours. Total RNA was extracted by RNAzol following manufacturer's protocol. Reverse transcription was performed in 500 ng of total RNA using PrimeScript RT reagent kit and the gene expression was analyzed by quantitative real-time PCR using TB Green Premix Ex Taq in Lightcycler® 480 Real-Time PCR System. Housekeeping gene GAPDH was used for normalization.
In general terms: In qPCR the cycle at which signal appears reflects the starting amount.

Assay [4] relates to cleaved caspase 3 and μ-H2AX. Briefly: Western blot of cleaved caspase 3 and μ-H2AX in Ramos. The note with it: IL-4 10 ng/ml; 33 nM. The protocol:
Levels of cleaved caspase 3 (apoptotic protein) and μ-H2AX (DNA damage marker) were investigated by western blot in the Ramos B cells treated in the same paradigm. In brief, total proteins were extracted from the Ramos cells in RIPA lysis buffer supplemented with Halt™ Protease and Phosphatase Inhibitor Cocktail. Proteins were denatured and separated through electrophoresis and blotted on the nitrocellulose membrane. The membrane was blocked with 5% nonfat milk diluted in TBST, then incubated with primary antibodies diluted in 5% BSA/TBS T at 4° C. overnight in a rotating wheel. Next day, membrane was washed with PBST and incubated with secondary antibodies diluted in 5% milk/TBST for an hour at RT. Intensities of protein bands were determined using ECL substrate kit in the ChemiDoc Imaging System.

Assay [5] concerns Ramos B cells. The assay can be described thus: WST-8 proliferation assay, IL-4/IL-21 rescue of anti-IgM induced cell death. The note with it: chimeric antibodies; 33 nM; IL-4/IL-21 10 ng/ml; 48 hours. The protocol:
The effects of anti-γc antibodies in blocking IL-4 and IL-21 rescues of Ramos cell death after anti-IgM induced hyperactivation were investigated by WST-8 proliferation assay. In brief, Ramos cells (50000 cells in 100 l) were seeded into 96-well plate and stabilized at 37° C. for an hour. Cells were pretreated in anti-γc antibodies or ritlecitinib for an hour, followed by incubation of IL-4 (10 ng/ml) or IL-21 (10 ng/ml) and anti-IgM (2 ug/ml, #109-006-129, Jackson ImmunoResearch). Aft er 48 hours, 10 μl WST-8 reagent (ab228554, Abcam) was added to each well and incubated for 4 hours.
WST-8 could be reduced by cellular dehydrogenases to an orange formazan product, which the amount of formazan produced is directly proportional to the number of living Ramos cells. Optical density (OD) of each well was measured by absorbance at 450 nm using Varioskan LUX Multimode Microplate Reader (ThermoFisher Scientific).
In general terms: Tetrazolium assays rely on reduction of a dye to a coloured formazan, in cell work by metabolically active cells.

The subject of assay [6] is IL-7 induced STAT5 phosphorylation. The assay can be described thus: Inhibition of IL-7 induced STAT5 phosphorylation in HPB-ALL T cell line, flow cytometry. The note with it: ScFv 10 μg/ml. An excerpt:
(§1) Cells were harvested and stained with FITC conjugated anti-pSTAT6, PE conjugated anti-pSTAT3 or APC con jugated anti-pSTAT5 antibodies for flow cytometry analyses. In some embodiments, the purified ScFv could block the IL-4 induced STAT6 phosphorylation in cell culture (e.g., Ramos). In some embodiments, the purified ScFv could block the IL-7 induced STAT5 phosphorylation in cell culture (e.g., HPB-ALL). In some embodiments, the purified ScFv could block the IL-9 induced STAT3 phosphorylation in cell culture (e.g., Jurkat). In some embodiments, the purified ScFv could block the IL-15 induced STAT5 phosphorylation in cell culture (e.g., KHYG-1). In some embodiments, the purified ScFv could block the IL-21 induced STAT3 phosphorylation in cell culture (e.g., Ramos).
(§2) Flow cytometry was employed to measure the percentage of p-STAT expressing cells after cytokine induction and anti-γc ScFv treatment. KHYG-1 (Creative Bioarray, Shirley, NY 11967, USA) was starved in IL-2 free RPMI1640 (ATCC modification, ThermoFisher Scientific, Waltham, MA, USA) with 10% FBS (ThermoFisher Scientific) for 2 days. Ramos, HPB-ALL and Jurkat cell lines were used directly without starvation. Cells were replenished with fresh RPMI1640 medium and pretreated with anti-γc ScFv (10 μg/mL) for an hour. After treatment with TL-4 (10 ng/ml, Sino Biological), IL-7 (50 ng/ml, Sino Biological), IL-9 (50 ng/ml, Sino Biological), IL-15 (10 ng/ml, Sino Biological) or IL-21 (10 ng/ml, Sino Biological) for 15 min, cells were fixed in 4% paraformaldehyde (PFA, Sigma, St. Louis, Missouri, USA) for 10 min, permeabilized in 0.1% Triton X-100 (Sigma) for 10 min and then stained with FITC conjugated anti-pSTAT6, PE conjugated anti-pSTAT3 or APC con jugated anti-pSTAT5 (all diluted in 1:100, Biolegend, San Diego, California, USA) for 30 min at 37° C. Percentage of p-STAT expressing cells was measured by BD FACSLyric™ Clinical Flow Cytometry System (BD Biosciences, New Jersey, USA). Data were analyzed by Flowjo (version 10, BD).
(§3) Different cell lines were used for testing. KHYG-1 refers to the NK cell line harvested from the peripheral blood of a person with aggressive NK cell leukemia. This cell line could respond to IL-2 and IL-15 stimulation in-vitro [Yamasaki et al., Leuk Res., […]; 28 (10): 1023-31]. Ramos is a human Burkitts Lymphoma cell line (CRL-1596™) and could be used as a model for IL-4 and IL-21 studies [Hui et al., Front Immunol., 2022; 13: 919854]. Jurkat is a human T lymphoblast cell line (Clone E6-1, TIB-152™) and is widely used in the T cell studies of IL-9 function. HPB-ALL is a T cell leukemia model established from the peripheral blood of a child with ALL and thymoma at diagnosis in 1973 and could be used for IL-7 functional studies.

Assay [7] relates to IL-4 induced STAT6 phosphorylation. The assay can be described thus: Inhibition of IL-4 induced STAT phosphorylation in Ramos B cell line, flow cytometry. The note with it: ScFv 10 μg/ml.
Excerpt: as §1, §2, §3

Assay [8] relates to IL-9 induced STAT3 phosphorylation. Briefly: Inhibition of IL-9 induced STAT3 phosphorylation in Jurkat T cell line, flow cytometry. The note with it: ScFv 10 μg/ml.
Excerpt: as §1, §2, §3

Assay [9] deals with IL-21 induced STAT3 phosphorylation. Briefly: Inhibition of IL-21 induced STAT phosphorylation in Ramos B cell line, flow cytometry. The note with it: ScFv 10 μg/ml.
Excerpt: as §1, §2, §3

Assay [10] has as its system IL-15 induced STAT5 phosphorylation. The assay can be described thus: Inhibition of IL-15 induced STAT phosphorylation in KHYG-1 NK cell line, flow cytometry. The note with it: ScFv 10 μg/ml.
Excerpt: as §1, §2, §3

Assay [11] has as its system STAT phosphorylation induced by 6 γc cytokines. Briefly: Flow cytometry of p-STAT with full-length anti-γc antibodies in multiple cell lines. The note with it: IL-2, IL-15 in KHYG-1; IL-4, IL-21 in Ramos; IL-7 in HPB-ALL; IL-9 in Jurkat; cytokines 10 ng/ml; 33 nM (5 μg/ml). The protocol: Flow cytometry was employed to measure the percentage of p-STAT expressing cells after cytokine induction and anti-γc antibody treatment as previously described. IL-2 and IL-15 were tested in KHYG-1 NK cell line; IL-4 and IL-21 were tested in Ramos B cell line; IL-7 was tested in HPB-ALL T cell line; and IL-9 was tested in Jurkat T cell line.

The values that follow come from patent US20260209365A1, “ANTI-COMMON GAMMA CHAIN PROTEINS AND COMPOSITIONS OF MATTER” (SINOMAB BIOSCIENCE LIMITED, priority 2023, published 2026).

As for `C=CC(=O)N1C[C@H](Nc2ncnc3[nH]ccc23)CC[C@@H]1C` [ritlecitinib], the “suppression of IL-2 and IL-15 induced secretion of granzyme A and IFNγ” value in [1] (IL-2, IL-15 20 ng/ml, three days, 33 nM) is on record as “significantly reduced”. Also, the “suppression of granzyme B secretion” value in [1] (IL-2 or IL-15, 33 nM, humanized antibodies) was “superior suppression to granzyme B secretion”. For the same molecule, in assay [2], the “suppression of IL-2, IL-15 and IL-21 induced granzyme A secretion” value is “significantly suppress IL-2, IL-15 and IL-21 induced granzyme A secretion”. In addition, the “suppression of IL-4 induced CD23 expression” value in assay [3] is reported as “significantly suppress IL-4 induced CD23 expression”. In addition, the “block of IL-4 protective effects, μ-H2AX re-induced” value in [4] is reported as “could block IL-4 protective effects”.

B1: SM-05F: anti-γc antibody, full-length chimeric; CDR SEQ ID NO: 84, 86, 88, 92, 94, 96 (antibody, V domains shown)
VH: EVQLQQSGPELVKPGASVKIFCKTSGYTFTEYTMHWVKQSHGESLEWIGGIDPNTGGVTYNQKFKGKATLTADKSSSTAYMELRSLTSEDSAVYYCARRRRYYGYALDYWGQGTSVTVSS
VL: DVLMTQTPLSLPVSLGDQASISCRSSQSIVHNNGNTYLEWYLQKPGQSPKLLIYKVSNRFFGVPDRFSGSGSGTYFTLKISRVEAEDLGVYYCFQGSHVPWTFGGGTKLEIKR
In the case of B1, the “block of IL-4 and IL-21 rescue of anti-IgM induced cell death (WST-8)” value in [5] is “could block the effects of IL-4 and IL-21”. Besides, the entries for the “p-STAT5 inhibition (%)” value in [6] and in [10] were 99.42% and 43.73%, respectively. Besides, the “p-STAT6 inhibition (%)” value in assay [7] was 45.99%. The “p-STAT3 inhibition (%)” value in assay [8] is 92.36%; in assay [9], 78.97%. In addition, the “block of STAT phosphorylation” value in assay [11] is given as “barely demonstrated strong inhibitory effects”.
